From US6468985B1, “Retinoblastoma protein-interacting zinc finger proteins” (The Burnham Institute, priority 1994, dated 2002)

Legend:
RIZ = target: T1, RIZ (Rattus norvegicus, UniProt Q63755); experiment: binding of anti-RIZ antiserum / anti-ce1 antibody to RIZ and RIZ truncation mutants
T1 construct: made in house; host or cells: in vitro transcription/translation (rabbit reticulocyte lysate)
T1 sequence (Q63755 1-318): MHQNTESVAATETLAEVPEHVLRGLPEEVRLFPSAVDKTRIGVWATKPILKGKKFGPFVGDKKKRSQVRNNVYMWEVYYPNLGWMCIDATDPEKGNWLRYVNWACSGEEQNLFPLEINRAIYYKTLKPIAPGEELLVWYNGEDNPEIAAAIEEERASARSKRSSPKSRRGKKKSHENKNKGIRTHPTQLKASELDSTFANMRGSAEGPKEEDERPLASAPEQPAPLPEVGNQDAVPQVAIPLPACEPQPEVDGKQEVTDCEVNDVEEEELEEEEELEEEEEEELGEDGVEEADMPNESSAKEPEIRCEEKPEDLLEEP

E1A 12S = E1A 12S (Human adenovirus C serotype 5, UniProt P03255)
p56EERb = target: T2, p56EERb (Homo sapiens, UniProt P06400); experiment: cDNA expression library filter screening with p56EERb, binding-specificity control; conditions: p56EERb preincubated with 5 μM poly-L-lysine or 50 μM T- or K-peptide
T2 construct: p56 Rb: 56 kD fragment of Rb from a.a. position 379-928; made in house; host or cells: E. coli BL21(DE3)pLysS
T2 sequence (P06400 379-928): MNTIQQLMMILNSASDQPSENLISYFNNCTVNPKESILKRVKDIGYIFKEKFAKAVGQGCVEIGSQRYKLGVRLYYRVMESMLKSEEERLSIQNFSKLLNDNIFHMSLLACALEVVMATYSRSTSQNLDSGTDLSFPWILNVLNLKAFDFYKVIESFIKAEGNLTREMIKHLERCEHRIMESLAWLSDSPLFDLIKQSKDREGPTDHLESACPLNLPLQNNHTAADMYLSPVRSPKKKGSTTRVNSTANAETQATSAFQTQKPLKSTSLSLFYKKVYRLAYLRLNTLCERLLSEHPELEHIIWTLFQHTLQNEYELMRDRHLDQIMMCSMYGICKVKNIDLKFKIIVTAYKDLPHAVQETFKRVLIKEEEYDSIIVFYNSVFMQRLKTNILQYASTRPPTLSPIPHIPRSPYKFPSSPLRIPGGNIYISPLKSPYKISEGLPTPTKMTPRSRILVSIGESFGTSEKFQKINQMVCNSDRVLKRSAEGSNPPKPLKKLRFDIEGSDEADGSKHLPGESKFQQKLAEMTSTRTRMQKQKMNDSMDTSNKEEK
Description: A rat RIZ cDNA was obtained from a rat neonatal cardiac myocyte λgt11 cDNA expression library (Zhu et al., Mol. Cell Biol., 13:4432 (1993), which is incorporated herein by reference). The library was screened using a 56 kD fragment containing the pocket binding site of Rb and the EE epitope (p56EERb) according to previously described methods (Macgregor et al., Oncogene, 5:451-458 (1991), which is incorporated herein by reference).
For binding-specificity control, p56EERb was preincubated with 5 μM poly-L-lysine (Sigma) or 50 μM T- or K-peptide (Huang et al., supra, 1991) before applying onto filters. T peptide is an 18 residue synthetic peptide derived from residues 101-118 of SV40 large T antigen, while K peptide is the same as T peptide except for a lysine residue substituted for a glutamic acid residue at position 107 of SV40 large T antigen (Huang et al., supra, 1991).
The binding of p56EERb to a clone expressing a RIZ protein was detected using an anti-EE monoclonal antibody obtained as spent culture medium of the anti-EE hybridoma (Walter, supra, 1986) and an alkaline phosphatase conjugated goat anti-mouse IgG antibody specific for mouse immunoglobulin (Promega; Madison Wis.).

[1] = target: T3, hypophosphorylated Rb (pRb) from HT1080 cell extract (UniProt P06400 2-928, hypophosphorylated form); experiment: glutathione-agarose pull-down from HT1080 cell extract with 4 ug GST-RIZ; anti-Rb immunoblot
T3 construct: Endogenous protein in a cell lysate; also called Rb from HT1080 cells; fastest migrating forms of Rb
T3 sequence (looked up): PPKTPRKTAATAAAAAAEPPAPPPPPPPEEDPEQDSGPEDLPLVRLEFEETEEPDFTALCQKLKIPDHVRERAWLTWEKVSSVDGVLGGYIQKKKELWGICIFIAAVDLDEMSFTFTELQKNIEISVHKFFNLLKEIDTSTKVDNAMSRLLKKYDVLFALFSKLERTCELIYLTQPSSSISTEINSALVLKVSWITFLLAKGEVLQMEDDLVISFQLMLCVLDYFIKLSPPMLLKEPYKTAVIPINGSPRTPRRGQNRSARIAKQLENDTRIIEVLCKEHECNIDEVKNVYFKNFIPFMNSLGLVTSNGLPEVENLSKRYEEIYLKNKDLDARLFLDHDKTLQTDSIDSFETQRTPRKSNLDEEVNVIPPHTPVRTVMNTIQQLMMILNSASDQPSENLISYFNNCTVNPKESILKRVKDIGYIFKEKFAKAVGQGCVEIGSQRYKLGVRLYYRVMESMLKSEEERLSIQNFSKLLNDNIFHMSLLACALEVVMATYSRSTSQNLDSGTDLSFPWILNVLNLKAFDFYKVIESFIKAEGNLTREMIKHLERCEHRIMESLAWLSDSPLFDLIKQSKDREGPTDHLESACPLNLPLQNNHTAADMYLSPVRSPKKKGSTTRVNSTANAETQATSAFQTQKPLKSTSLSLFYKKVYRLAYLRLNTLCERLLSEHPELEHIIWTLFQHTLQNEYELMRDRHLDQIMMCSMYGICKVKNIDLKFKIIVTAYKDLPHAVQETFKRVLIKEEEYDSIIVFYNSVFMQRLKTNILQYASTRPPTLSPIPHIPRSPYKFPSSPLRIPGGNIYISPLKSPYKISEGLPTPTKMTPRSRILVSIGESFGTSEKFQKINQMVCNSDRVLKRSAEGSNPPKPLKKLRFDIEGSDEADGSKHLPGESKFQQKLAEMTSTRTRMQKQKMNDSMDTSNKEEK

[2] = target: 35S-labeled full length RIZ (rat, UniProt Q63755 1-1706, 35S label); experiment: GST fusion protein with in vitro translated labeled protein
35S-RIZ (1-575)^307-Gly = target: T4, 35S-RIZ (1-575)^307-Gly (rat, UniProt Q63755 1-575, 35S label); experiment: immunoprecipitation with anti-Rb antiserum, SDS-PAGE, autoradiography
T4 construct: In vitro transcribed/translated; also called glycine mutant; cr2 mutant
T4 sequence: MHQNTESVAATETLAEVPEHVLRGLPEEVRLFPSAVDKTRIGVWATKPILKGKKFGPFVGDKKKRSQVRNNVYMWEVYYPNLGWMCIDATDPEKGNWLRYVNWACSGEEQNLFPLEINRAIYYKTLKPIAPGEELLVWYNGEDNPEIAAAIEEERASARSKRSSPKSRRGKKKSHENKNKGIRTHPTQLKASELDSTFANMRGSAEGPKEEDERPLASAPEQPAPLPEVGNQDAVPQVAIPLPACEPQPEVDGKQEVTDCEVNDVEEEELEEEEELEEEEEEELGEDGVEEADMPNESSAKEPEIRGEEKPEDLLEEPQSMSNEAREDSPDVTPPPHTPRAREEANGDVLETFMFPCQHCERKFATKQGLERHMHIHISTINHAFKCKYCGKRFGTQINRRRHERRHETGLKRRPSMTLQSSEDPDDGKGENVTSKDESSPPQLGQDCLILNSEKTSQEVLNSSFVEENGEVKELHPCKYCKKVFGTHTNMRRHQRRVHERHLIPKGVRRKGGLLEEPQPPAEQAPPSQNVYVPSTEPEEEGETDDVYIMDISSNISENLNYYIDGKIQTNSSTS

E1A 12S, sequence (P03255 1-139, added parts left off): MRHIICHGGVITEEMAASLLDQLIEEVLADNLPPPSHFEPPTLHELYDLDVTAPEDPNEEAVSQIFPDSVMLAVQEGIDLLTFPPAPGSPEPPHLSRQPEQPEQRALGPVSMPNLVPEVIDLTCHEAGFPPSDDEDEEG

Question: KPEDLLEEPQS [ce1 peptide] was tested. Which “inhibition of binding between anti-ce1 antibody and 35S-RIZ318” value (RIZ) did it give?
Answer: inhibited binding

Question: And the “inhibition of binding between anti-ce1 antibody and 35S-E1A 12S (E1A243)” value (E1A 12S)?
Answer: inhibited binding

Question: For poly-L-lysine, which “inhibition of binding of p56EERb to RIZ-expressing clones” value (p56EERb) is on record?
Answer: maintained their reactivity

B1: purified rat RIZ (a.a. position 215-462) fused C-terminal to glutathionine S-transferase (GST) (other)
chain: PLASAPEQPAPLPEVGNQDAVPQVAIPLPACEPQPEVDGKQEVTDCEVNDVEEEELEEEEELEEEEEEELGEDGVEEADMPNESSAKEPEIRCEEKPEDLLEEPQSMSNEAREDSPDVTPPPHTPRAREEANGDVLETFMFPCQHCERKFATKQGLERHMHIHISTINHAFKCKYCGKRFGTQINRRRHERRHETGLKRRPSMTLQSSEDPDDGKGENVTSKDESSPPQLGQDCLILNSEKTSQEVLN
notes: not shown: glutathione S-transferase
Question: Does B1 bind [1]?
Answer: binds

Question: Does B1 bind [2]?
Answer: no binding

B2: 56 kD fragment of Rb produced by bacterial expression from p56Rb plasmid (other, UniProt P06400 379-928, looked up)
chain: T2 sequence (P06400 379-928)
notes: range 379-928; Expressed in E. coli; also called 56 kD Rb
Question: Does B2 bind (35S-RIZ (1-575)^307-Gly)?
Answer: no binding (tested: 33 nM Rb)
